What was measured:
BrxX:Ocr (BrxX2:Ocr2) = biological target: T1, BrxX:Ocr (BrxX2:Ocr2) (Escherichia coli, UniProt P0DUF9); test: cryoEM structure ([…] A); format: binding; conditions: Ocr bound, no DNA, Mg2+, CHAPSO, pH 7.5; site: methyltransferase domain pocket; SAM modelled from the DNA-bound structure
T1 construct: gene pglX; full-length BrxX with N-terminal His6 kept plus T7 Ocr with N-His-TEV kept; both expressed in E. coli BW25113; BrxX2:Ocr2 complex; with Protein Ocr (Escherichia phage T7)
T1 sequence (P0DUF9 1-1205): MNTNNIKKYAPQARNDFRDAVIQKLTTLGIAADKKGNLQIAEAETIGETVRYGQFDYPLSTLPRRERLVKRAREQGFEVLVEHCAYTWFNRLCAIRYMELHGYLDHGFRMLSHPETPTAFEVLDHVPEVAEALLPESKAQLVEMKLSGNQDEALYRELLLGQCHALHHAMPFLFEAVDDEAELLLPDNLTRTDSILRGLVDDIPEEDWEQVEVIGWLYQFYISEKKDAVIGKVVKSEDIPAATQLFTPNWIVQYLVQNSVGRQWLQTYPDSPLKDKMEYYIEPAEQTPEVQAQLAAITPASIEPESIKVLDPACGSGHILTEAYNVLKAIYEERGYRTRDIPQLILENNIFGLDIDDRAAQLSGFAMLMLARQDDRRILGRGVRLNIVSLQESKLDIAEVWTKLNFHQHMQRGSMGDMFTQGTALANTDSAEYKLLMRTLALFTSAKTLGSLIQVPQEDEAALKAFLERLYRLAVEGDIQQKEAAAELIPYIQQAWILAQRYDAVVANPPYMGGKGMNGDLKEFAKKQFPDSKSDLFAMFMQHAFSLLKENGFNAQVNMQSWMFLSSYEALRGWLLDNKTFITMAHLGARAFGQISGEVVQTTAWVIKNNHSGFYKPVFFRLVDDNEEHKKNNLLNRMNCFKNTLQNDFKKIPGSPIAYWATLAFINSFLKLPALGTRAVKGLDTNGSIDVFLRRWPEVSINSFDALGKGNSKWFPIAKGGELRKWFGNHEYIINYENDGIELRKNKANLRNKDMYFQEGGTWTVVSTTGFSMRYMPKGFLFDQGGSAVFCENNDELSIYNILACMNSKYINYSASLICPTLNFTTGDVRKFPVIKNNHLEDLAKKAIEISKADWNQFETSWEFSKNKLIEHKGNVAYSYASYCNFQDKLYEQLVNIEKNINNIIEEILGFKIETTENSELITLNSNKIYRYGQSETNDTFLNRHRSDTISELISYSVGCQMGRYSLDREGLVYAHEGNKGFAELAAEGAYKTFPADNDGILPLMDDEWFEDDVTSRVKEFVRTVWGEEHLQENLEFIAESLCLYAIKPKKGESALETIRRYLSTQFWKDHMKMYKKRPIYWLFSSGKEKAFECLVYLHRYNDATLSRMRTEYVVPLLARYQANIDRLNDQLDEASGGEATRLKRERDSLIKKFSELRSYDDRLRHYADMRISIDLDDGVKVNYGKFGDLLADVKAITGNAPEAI
T1 sequence (P03775 1-117 partner): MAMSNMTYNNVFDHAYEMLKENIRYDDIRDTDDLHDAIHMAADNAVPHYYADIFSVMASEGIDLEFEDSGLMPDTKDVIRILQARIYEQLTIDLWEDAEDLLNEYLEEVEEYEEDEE

BrxA = biological target: T2, BrxA (Escherichia coli HS, UniProt P0DUF6 1-213); test: EMSA; EMSA: 20 nM Cy5-DNA, 0.5x TBE pH 8.0, 35 mM NaCl, 5% glycerol, +/-0.5 mM SAM or SAH, 30 min, room temperature; BLI: 20 mM Tris-HCl pH 8.0, 100 mM NaCl, 0.05 mg/mL BSA, 0.02% Tween-20, +/-0.5 mM SAM, 30 C; conditions: protein: recombinant; tags: N-His6; label: 5'-Cy5 on strand 1; blunt
T2 sequence: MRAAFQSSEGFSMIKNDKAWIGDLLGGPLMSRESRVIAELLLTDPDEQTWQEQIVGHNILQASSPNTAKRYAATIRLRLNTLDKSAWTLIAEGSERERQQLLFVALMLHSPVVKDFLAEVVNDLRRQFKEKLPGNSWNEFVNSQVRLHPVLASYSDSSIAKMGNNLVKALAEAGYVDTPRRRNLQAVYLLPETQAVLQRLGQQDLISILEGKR

BrxX (PglX) [1] = biological target: T3, BrxX (PglX) (Escherichia coli HS, UniProt P0DUF9 1-1205); test: EMSA; 0.5 mM SAM; EMSA: 20 nM Cy5-DNA, 0.5x TBE pH 8.0, 35 mM NaCl, 5% glycerol, +/-0.5 mM SAM or SAH, 30 min, room temperature; BLI: 20 mM Tris-HCl pH 8.0, 100 mM NaCl, 0.05 mg/mL BSA, 0.02% Tween-20, +/-0.5 mM SAM, 30 C; conditions: protein: recombinant; tags: N-His6; label: 5'-Cy5 on strand 1; blunt
T3 sequence: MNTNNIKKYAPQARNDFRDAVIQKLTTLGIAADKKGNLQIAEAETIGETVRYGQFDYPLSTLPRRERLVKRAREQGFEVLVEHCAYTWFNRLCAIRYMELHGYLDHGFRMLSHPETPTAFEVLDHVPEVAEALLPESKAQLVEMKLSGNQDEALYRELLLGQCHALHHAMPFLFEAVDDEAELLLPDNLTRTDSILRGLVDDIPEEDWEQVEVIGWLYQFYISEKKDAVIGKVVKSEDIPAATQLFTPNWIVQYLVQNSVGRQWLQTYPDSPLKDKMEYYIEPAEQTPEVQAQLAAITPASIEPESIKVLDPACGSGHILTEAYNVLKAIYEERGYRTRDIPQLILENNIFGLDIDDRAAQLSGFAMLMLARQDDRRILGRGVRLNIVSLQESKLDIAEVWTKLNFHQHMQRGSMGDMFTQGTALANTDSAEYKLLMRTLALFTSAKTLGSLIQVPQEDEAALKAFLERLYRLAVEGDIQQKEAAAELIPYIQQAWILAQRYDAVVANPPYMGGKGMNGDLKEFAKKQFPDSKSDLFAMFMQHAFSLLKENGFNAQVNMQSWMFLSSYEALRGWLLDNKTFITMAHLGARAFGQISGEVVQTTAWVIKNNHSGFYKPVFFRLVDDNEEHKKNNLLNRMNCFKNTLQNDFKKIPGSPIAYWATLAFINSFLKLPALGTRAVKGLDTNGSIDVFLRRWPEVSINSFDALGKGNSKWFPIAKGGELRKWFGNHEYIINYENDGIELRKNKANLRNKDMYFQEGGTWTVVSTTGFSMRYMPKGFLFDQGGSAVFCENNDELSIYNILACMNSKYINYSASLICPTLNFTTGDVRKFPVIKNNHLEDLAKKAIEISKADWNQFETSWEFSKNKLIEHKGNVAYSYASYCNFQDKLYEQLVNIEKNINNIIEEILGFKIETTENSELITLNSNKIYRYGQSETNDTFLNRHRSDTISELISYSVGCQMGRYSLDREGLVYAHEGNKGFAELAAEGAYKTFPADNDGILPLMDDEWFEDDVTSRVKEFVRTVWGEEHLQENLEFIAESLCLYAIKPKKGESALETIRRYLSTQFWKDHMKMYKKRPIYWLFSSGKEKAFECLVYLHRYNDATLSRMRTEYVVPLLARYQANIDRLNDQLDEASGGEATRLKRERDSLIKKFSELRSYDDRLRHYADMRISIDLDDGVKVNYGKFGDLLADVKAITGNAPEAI

BrxX (PglX) [2] = biological target: T3, BrxX (PglX); test: EMSA; no cofactor; EMSA: 20 nM Cy5-DNA, 0.5x TBE pH 8.0, 35 mM NaCl, 5% glycerol, +/-0.5 mM SAM or SAH, 30 min, room temperature; BLI: 20 mM Tris-HCl pH 8.0, 100 mM NaCl, 0.05 mg/mL BSA, 0.02% Tween-20, +/-0.5 mM SAM, 30 C; conditions: protein: recombinant; tags: N-His6; label: 5'-Cy5 on strand 1; blunt
BrxX (PglX) [3] = biological target: T3, BrxX (PglX); test: cryoEM structure (2.2 A); SAM, metal modelled as Mg2+; EMSA: 20 nM Cy5-DNA, 0.5x TBE pH 8.0, 35 mM NaCl, 5% glycerol, +/-0.5 mM SAM or SAH, 30 min, room temperature; BLI: 20 mM Tris-HCl pH 8.0, 100 mM NaCl, 0.05 mg/mL BSA, 0.02% Tween-20, +/-0.5 mM SAM, 30 C; conditions: protein: recombinant; tags: N-His6; blunt
BrxX (PglX) [4] = biological target: T3, BrxX (PglX); test: BLI; 1:1 fit, stimulated by SAM; Kd only in figure; EMSA: 20 nM Cy5-DNA, 0.5x TBE pH 8.0, 35 mM NaCl, 5% glycerol, +/-0.5 mM SAM or SAH, 30 min, room temperature; BLI: 20 mM Tris-HCl pH 8.0, 100 mM NaCl, 0.05 mg/mL BSA, 0.02% Tween-20, +/-0.5 mM SAM, 30 C; conditions: protein: recombinant; tags: N-His6; label: 5'-biotin on strand 1; blunt
BrxX (PglX) [5] = biological target: T3, BrxX (PglX); test: BLI; SAM; heterogeneous binding, no accurate Kd; EMSA: 20 nM Cy5-DNA, 0.5x TBE pH 8.0, 35 mM NaCl, 5% glycerol, +/-0.5 mM SAM or SAH, 30 min, room temperature; BLI: 20 mM Tris-HCl pH 8.0, 100 mM NaCl, 0.05 mg/mL BSA, 0.02% Tween-20, +/-0.5 mM SAM, 30 C; conditions: protein: recombinant; tags: N-His6; label: 5'-biotin on strand 1; blunt
BrxX (PglX) [6] = biological target: T3, BrxX (PglX); test: EMSA; non-methylated partner of N9; no cofactor, SAM or SAH; EMSA: 20 nM Cy5-DNA, 0.5x TBE pH 8.0, 35 mM NaCl, 5% glycerol, +/-0.5 mM SAM or SAH, 30 min, room temperature; BLI: 20 mM Tris-HCl pH 8.0, 100 mM NaCl, 0.05 mg/mL BSA, 0.02% Tween-20, +/-0.5 mM SAM, 30 C; conditions: protein: recombinant; tags: N-His6; label: 5'-Cy5 on strand 1; blunt
BrxX (PglX) [7] = biological target: T3, BrxX (PglX); test: EMSA; improved binding; with and without 0.5 mM SAM; EMSA: 20 nM Cy5-DNA, 0.5x TBE pH 8.0, 35 mM NaCl, 5% glycerol, +/-0.5 mM SAM or SAH, 30 min, room temperature; BLI: 20 mM Tris-HCl pH 8.0, 100 mM NaCl, 0.05 mg/mL BSA, 0.02% Tween-20, +/-0.5 mM SAM, 30 C; conditions: protein: recombinant; tags: N-His6; label: 5'-Cy5 on strand 1; blunt

With `C[S+](CC[C@H](N)C(=O)O)C[C@H]1O[C@@H](n2cnc3c(N)ncnc32)[C@H](O)[C@@H]1O` (some centres unmarked) [S-adenosyl methionine] the “cryoEM structure (2.8 A)” value (BrxX:Ocr (BrxX2:Ocr2)) was “The MTD displayed density for a molecule of SAM”.

B1: 43 bp, 1 BREX site (dsDNA)
DNA 1: AGTCAGTGGTAAGGTCAGGAATGAGTCAGTTGGCAAGTCAGGA
DNA 2: TCCTGACTTGCCAACTGACTCATTCCTGACCTTACCACTGACT
For B1, the binding result (BrxA) was “binds”, the Kd (BrxX (PglX) [1]) was ~60 nM and the Kd (BrxX (PglX) [2]) was ~300 nM.

B2: 43 bp, 2 BREX sites head-to-tail (H2T) (dsDNA)
DNA 1: AGTCAGTGGTAAGGTCAGGAATGAGTCAGTGGTAAGGTCAGGA
DNA 2: TCCTGACCTTACCACTGACTCATTCCTGACCTTACCACTGACT
B2: binds (BrxX (PglX) [3]).

B3: 20 bp BREX, biotin (dsDNA)
DNA 1: AGTCAGTGGTAAGGTCAGGA
DNA 2: TCCTGACCTTACCACTGACT
B3: binds (BrxX (PglX) [4]).

B4: 40 bp BREX, biotin (dsDNA)
DNA 1: TCAGTAGTCAAGTCAGTGGTAAGGTCAGGACAGGAGTCAG
DNA 2: CTGACTCCTGTCCTGACCTTACCACTGACTTGACTACTGA
B4: binds (BrxX (PglX) [5]).

B5: 40 bp BREX (dsDNA)
DNA 1: TCAGTAGTCAAGTCAGTGGTAAGGTCAGGACAGGAGTCAG
DNA 2: CTGACTCCTGTCCTGACCTTACCACTGACTTGACTACTGA
B5: binds (BrxX (PglX) [6]).

B6: 50 bp BREX (dsDNA)
DNA 1: AGTCATCAGTAGTCAAGTCAGTGGTAAGGTCAGGACAGGAGTCAGCAGGA
DNA 2: TCCTGCTGACTCCTGTCCTGACCTTACCACTGACTTGACTACTGATGACT
B6: binds (BrxX (PglX) [7]).

B7: 43 bp scrambled (dsDNA)
DNA 1: AGTCAGTAGTGAGGTCAGGAATGAGTCAGTCTCACTGTCAGGA
DNA 2: TCCTGACAGTGAGACTGACTCATTCCTGACCTCACTACTGACT
B7 was tested, and the binding result (BrxA) was “binds” and the Kd (BrxX (PglX) [1]) was ~300 nM.
